In patent publication US20200361992A1 (PROTAGONIST THERAPEUTICS, published 2020):
Starred links: 1 amine or outer side, 2 acyl side, 3 side chain; linkers in the order of their positions; H or OH if unused. Positions of bridges follow the written chain, without caps; N, C: chain ends. Non-standard residues stand in square brackets, D forms with d. Groups on a side chain read outwards from the residue. Primed or numbered codes have the meaning given here. *: point of attachment. PEG4′ = bifunctional PEG linker with 4 polyethylene glycol units; PEG12 = NCCOCCOCCOCCOCCOCCOCCOCCOCCOCCOCCOCCOCCC(=O)O; Phe(4-tBu) = CC(C)(C)c1ccc(C[C@H](N)C(=O)O)cc1; Dip = N[C@H](C(=O)O)C(c1ccccc1)c1ccccc1; γGlu = O=C(O)[C@H](CCC(=O)[*:2])N[*:1]; Palmitoyl = CCCCCCCCCCCCCCCC(=O)*; β3hF = N[C@H](CC(=O)O)Cc1ccccc1; Isovaleryl = CC(C)CC(=O)*; hSer = N[C@@H](CCO)C(=O)O; Nle = CCCC[C@H](N)C(=O)O; PEG1′ = not defined here; PEG2′ = not defined here; PEG8′ = not defined here; dDap = NC[C@@H](N)C(=O)O; Dap = NC[C@H](N)C(=O)O; Npc = nipecotic acid; Ahx = NCCCCCC(=O)O

T1: human ferroportin (SLC40A1) fused with GFP, stably expressed in HEK293 cells (human, UniProt Q9NP59 1-571)
T1 sequence (looked up): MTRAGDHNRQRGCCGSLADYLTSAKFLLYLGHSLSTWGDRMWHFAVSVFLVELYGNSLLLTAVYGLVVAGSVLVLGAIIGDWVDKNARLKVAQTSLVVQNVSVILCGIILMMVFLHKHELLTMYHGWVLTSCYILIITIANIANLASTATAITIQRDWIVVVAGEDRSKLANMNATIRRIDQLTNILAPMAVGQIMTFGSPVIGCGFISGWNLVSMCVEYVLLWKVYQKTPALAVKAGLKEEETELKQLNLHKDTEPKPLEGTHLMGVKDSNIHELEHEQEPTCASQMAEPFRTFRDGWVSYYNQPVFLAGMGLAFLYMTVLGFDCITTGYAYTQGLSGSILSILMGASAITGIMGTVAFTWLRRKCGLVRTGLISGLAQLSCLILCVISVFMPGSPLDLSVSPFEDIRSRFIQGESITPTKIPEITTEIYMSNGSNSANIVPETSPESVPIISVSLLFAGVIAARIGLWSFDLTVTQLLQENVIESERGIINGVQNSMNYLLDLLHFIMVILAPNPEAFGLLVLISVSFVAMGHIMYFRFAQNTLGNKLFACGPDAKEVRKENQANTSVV

B1: Compd ID 151 (peptide)
peptide: DTHXPCIKXKXX
modifications: Isovaleric acid-DTH-[Dpa]-PCI-[(D)Lys]-[b-hPhe]-[Lys(Ahx-Palm)]-[Dap]-[N-Me-Cys]-NH2
B2: Compd ID 153 (peptide)
peptide: DTHXPCIKXKKC
modifications: Isovaleric acid-DTH-[Dpa]-PCI-[(D)Lys-Peg11*]-[b-hPhe]-[Lys(Peg11-Palm)]-[(D)Lys-Peg11*]-C-NH2 (*PEG11-OMe)
B3: Compd ID 155 (peptide)
peptide: DTHXPCIKXKKC
modifications: Isovaleric acid-DTH-[Dpa]-PCI-[(D)Lys]-[b-hPhe]-[Lys(Peg11-Octane)]-[(D)Lys]-C-NH2
B4: Compd ID 156 (peptide)
peptide: DTHXPCIKXKKC
modifications: Isovaleric acid-DTH-[Dpa]-PCI-[(D)Lys]-[b-hPhe]-[Lys(Peg11-Lauryl)]-[(D)Lys]-C-NH2
B5: Compd ID 157 (peptide)
peptide: DTHXPCIKXKKC
modifications: Isovaleric acid-DTH-[Dpa]-PCI-[(D)Lys]-[b-hPhe]-[Lys-Peg11*]-[(D)Lys]-C-NH2 (*PEG11-OMe)
B6: Compd ID 158 (peptide)
peptide: DTHXPCIKXKKC
modifications: Isovaleric acid-DTH-[Dpa]-PCI-[(D)Lys]-[b-hPhe]-[Lys(IsoGlu-Palm)]-[(D)Lys]-C-NH2
B7: Compd ID 159 (peptide)
peptide: DTHXPCIKXKKC
modifications: Isovaleric acid-DTH-[Dpa]-PCI-[(D)Lys-Ac]-[b-hPhe]-[Lys(Peg11-Palm)]-[(D)Lys-Ac]-C-NH2
B8: Compd ID 166 (peptide)
peptide: DTHXPCIKXKKC
modifications: Isovaleric acid-DTH-[Dpa]-PCI-[(D)Lys-Peg11*]-[b-hPhe]-[Lys(Ahx-Palm)]-[(D)Lys-Peg11*]-C-NH2 (*PEG11-OMe)

Each binder was assayed against T1, human ferroportin (SLC40A1) fused with … (assay: cell-based or functional assay).
DTHFPCIKFKPRSKGCK (Isovaleric acid-DTHFPCIKF-Lys[PEG11-Palm]-PRSKGCK-NH2) [Ref. Compd 1] was tested, and the “FPN IC50” value was 30 nM. For Isovaleryl-DTH[Dip]PCI[dA][β3hF]K([PEG12-Palmitoyl])[dK]C-NH2 (disulfide 6-12 (inferred)) [Compd ID 146], the “FPN IC50” value was 11 nM. In the case of Isovaleryl-DTH[Dip]PCII[β3hF]K([PEG12-Palmitoyl])[dK]C-NH2 (disulfide 6-12 (inferred)) [Compd ID 147], the “FPN IC50” value is reported as 24 nM. Isovaleryl-DTH[Dip]PCI[β3hF]K([PEG12-Palmitoyl])[dK]C-NH2 (disulfide 6-11 (inferred)) [Compd ID 148] was tested, and the “FPN IC50” value was 12 nM. With Isovaleryl-DTH[Dip][Npc]CI[dK][Phe(4-tBu)]K([PEG12-Palmitoyl])[dK]C-NH2 (disulfide 6-12 (inferred)) [Compd ID 149] the “FPN IC50” value was 17 nM. Isovaleryl-DTH[Dip][Npc]CI[dK][Phe(4-tBu)]K([PEG12-Palmitoyl])C[dK]-NH2 (disulfide 6-11 (inferred)) [Compd ID 150] was tested, and the “FPN IC50” value was 22 nM. For B1, the “FPN IC50” value was 28.5 nM. For DTHXPCIKXKKC (Isovaleric acid-DTH-[Dpa]-PCI-[(D)Lys]-[b-hPhe]-[Lys(Ac)]-[(D)Lys]-C-NH2) [Compd ID 152], the “FPN IC50” value was 146 nM. With B2 the “FPN IC50” value was 19 nM. With DTHXPCIKXKKC (Isovaleric acid-DTH-[Dpa]-PCI-[(D)Lys]-[b-hPhe]-[Lys-Peg11]-[(D)Lys]-C-NH2) [Compd ID 154] the “FPN IC50” value was 404 nM. For B3, the “FPN IC50” value was 279 nM. With B4 the “FPN IC50” value was 125 nM. B5 was tested, and the “FPN IC50” value was 347 nM. B6 was tested, and the “FPN IC50” value was 6 nM. For B7, the “FPN IC50” value was 4 nM. For DTHXPCIKXKC (Isovaleric acid-DTH-[Dpa]-PCI-[(D)Lys]-[b-hPhe]-[Lys(Dap-Palm)]-C-NH2) [Compd ID 160], the “FPN IC50” value was 4 nM. In the case of DTHXPCIKXKC (Isovaleric acid-DTH-[Dpa]-PCI-[(D)Lys]-[b-hPhe]-[Lys(dDap-Palm)]-C-NH2) [Compd ID 161], the “FPN IC50” value is reported as 10 nM. Isovaleryl-DTH[Dip]PCI[dK][β3hF][Dap]([Dap-Palmitoyl])C-NH2 (disulfide 6-11 (inferred)) [Compd ID 162] was tested, and the “FPN IC50” value was 8 nM. For Isovaleryl-DTH[Dip]PCI[dK][β3hF][Dap]([dDap-Palmitoyl])C-NH2 (disulfide 6-11 (inferred)) [Compd ID 163], the “FPN IC50” value was 7 nM. In the case of Isovaleryl-DTH[Dip]PCI[dK][β3hF][Dap]([dDap-Palmitoyl])C-NH2 (disulfide 6-11 (inferred)) [Compd ID 164], the “FPN IC50” value is reported as 6 nM. With DTHXPCIKXKKC (Isovaleric acid-DTH-[Dpa]-PCI-[(D)Lys]-[b-hPhe]-[Lys(Ahx-Palm)]-[(D)Lys]-C-NH2) [Compd ID 165] the “FPN IC50” value was 6 nM. With DTHFPCIXFKC (Isovaleric acid-DTHFPCI-[Orn]-[Phe]-Lys[PEG11-Palm]-C-NH2) [Compd ID 11] the “FPN IC50” value was 4 nM. B8 was tested, and the “FPN IC50” value was 6 nM. DTHXPCIKFKKC (Isovaleric Acid-D-T-H-[Dpa]-(D)Pro-C-I-(D)Lys-F-[Lys_Peg11_Palm]-(D)Lys-C-NH2) [Compd ID 167] was tested, and the “FPN IC50” value was 81 nM. DTHXPCIKFKKC (Isovaleric_Acid-D-T-H-bhPhe-(D)Pro-C-I-(D)Lys-F-[Lys_Peg11_Palm]-(D)Lys-C-NH2) [Compd ID 168] was tested, and the “FPN IC50” value was 54 nM. In the case of Isovaleryl-DTHFPCI[hSer]FK([PEG12-Palmitoyl])C-NH2 (disulfide 6-11 (inferred)) [Compd ID 12], the “FPN IC50” value is reported as 2 nM. For Isovaleryl-DTHFPCIQFK([PEG12-Palmitoyl])C-NH2 (disulfide 6-11 (inferred)) [Compd ID 13], the “FPN IC50” value was 4 nM. For Isovaleryl-DTHFPCIK(Ac)FK([PEG12-Palmitoyl])C-NH2 (disulfide 6-11 (inferred)) [Compd ID 14], the “FPN IC50” value was 3 nM. With Isovaleryl-DTHFPCI[Nle]FK([PEG12-Palmitoyl])C-NH2 (disulfide 6-11 (inferred)) [Compd ID 15] the “FPN IC50” value was 2 nM. With Isovaleryl-DTHFPCIKWK([PEG12-Palmitoyl])C-NH2 (disulfide 6-11 (inferred)) [Compd ID 20] the “FPN IC50” value was 4 nM. With Isovaleryl-DTHFPCI[dK]FK([PEG8′-Palmitoyl])C-NH2 (disulfide 6-11 (inferred)) [Compd ID 21] the “FPN IC50” value was 30 nM. With Isovaleryl-DTHFPCI[dK]FK([PEG4′-Palmitoyl])C-NH2 (disulfide 6-11 (inferred)) [Compd ID 22] the “FPN IC50” value was 17 nM. For Isovaleryl-DTHFPCI[dK]FK([PEG2′-Palmitoyl])C-NH2 (disulfide 6-11 (inferred)) [Compd ID 23], the “FPN IC50” value was 40 nM. In the case of Isovaleryl-DTHFPCI[dK]FK([PEG1′-Palmitoyl])C-NH2 (disulfide 6-11 (inferred)) [Compd ID 24], the “FPN IC50” value is reported as 17 nM. Isovaleryl-DTHFPCI[dK]FK([Ahx-Palmitoyl])C-NH2 (disulfide 6-11 (inferred)) [Compd ID 25] was tested, and the “FPN IC50” value was 11 nM. With Isovaleryl-DTHFPCI[dK]FK([PEG2′-γGlu-Palmitoyl])C-NH2 (disulfide 6-11 (inferred)) [Compd ID 26] the “FPN IC50” value was 13 nM. For Isovaleryl-DTHFPCI[dK]FK([γGlu-Palmitoyl])C-NH2 (disulfide 6-11 (inferred)) [Compd ID 27], the “FPN IC50” value was 35 nM. For Isovaleryl-DTHFPCI[dK]FK([γGlu-PEG2′-Palmitoyl])C-NH2 (disulfide 6-11 (inferred)) [Compd ID 28], the “FPN IC50” value was 23 nM. For Isovaleryl-DTHFPCI[dK]FK([PEG2′-Ahx-Palmitoyl])C-NH2 (disulfide 6-11 (inferred)) [Compd ID 29], the “FPN IC50” value was 30 nM. For Isovaleryl-DTHFPCI[dK]FK(Palmitoyl)C-NH2 (disulfide 6-11 (inferred)) [Compd ID 30], the “FPN IC50” value was 31 nM. In the case of DTHFPCIKFKPC (Isovaleric acid-DTHFPC(SH)I-[Lys]-[Phe]-Lys[PEG11-Palm]-Pro-C(SH)-NH2) [Compd ID 67], the “FPN IC50” value is reported as 13 nM. For Isovaleryl-DTHFPCI[dK]FK([PEG12-Palmitoyl])C-NH2 (cysteine pairing not given here) [Compd ID 68], the “FPN IC50” value was 12 nM. In the case of DTHFPCIKFKPRSKGC (Isovaleric acid-DTHFPCIKF-Lys[PEG11-Palm]-PRSKGC-NH2) [Compd ID 3], the “FPN IC50” value is reported as 16 nM. In the case of DTHFPCIKFKC (Isovaleric acid-DTHFPC(SH)I-[Lys]-[Phe]-Lys[PEG11-Palm]-C(SH)-NH2) [Compd ID 69], the “FPN IC50” value is reported as 9 nM. Isovaleryl-DTHFPCI[dK]FK([PEG12-Palmitoyl])PC-NH2 (disulfide 6-12 (inferred)) [Compd ID 70] was tested, and the “FPN IC50” value was 5 nM. Isovaleryl-DTHFPCI[dK]FK([PEG12-Palmitoyl])PRC-NH2 (disulfide 6-13 (inferred)) [Compd ID 71] was tested, and the “FPN IC50” value was 8 nM. In the case of Isovaleryl-DTHFPCI[dK]FK([PEG12-Palmitoyl])PRSC-NH2 (disulfide 6-14 (inferred)) [Compd ID 72], the “FPN IC50” value is reported as 12 nM. Isovaleryl-DTHFPCI[dK]FK([PEG12-Palmitoyl])PRSKC-NH2 (disulfide 6-15 (inferred)) [Compd ID 73] was tested, and the “FPN IC50” value was 11 nM.
